# Laboratory results from paper PMC10992614, “Construction and optimization of a biocatalytic route for the synthesis of neomenthylamine from menthone” (Bioresources and Bioprocessing, 2023).
# T1: ω-transaminase from Vibrio fluvialis JS17 (VfTA) (Vibrio fluvialis, UniProt F2XBU9)
# T1 sequence (F2XBU9 1-453): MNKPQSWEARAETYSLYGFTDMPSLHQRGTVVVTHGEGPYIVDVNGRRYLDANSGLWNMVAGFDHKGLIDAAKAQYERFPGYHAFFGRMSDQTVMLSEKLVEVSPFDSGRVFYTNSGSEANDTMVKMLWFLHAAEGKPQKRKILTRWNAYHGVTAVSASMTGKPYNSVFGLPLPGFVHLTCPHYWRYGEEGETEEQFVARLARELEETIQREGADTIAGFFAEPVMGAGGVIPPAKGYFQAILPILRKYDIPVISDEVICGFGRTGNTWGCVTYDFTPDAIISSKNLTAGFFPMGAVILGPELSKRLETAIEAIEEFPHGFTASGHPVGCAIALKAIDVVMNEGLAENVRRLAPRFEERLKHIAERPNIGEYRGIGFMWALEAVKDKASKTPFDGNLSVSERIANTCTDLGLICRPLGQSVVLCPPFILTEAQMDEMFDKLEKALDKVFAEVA
# B1: ω-transaminase from Vibrio fluvialis JS17 (VfTA) (Vibrio fluvialis) (protein)
# chain: T1 sequence (F2XBU9 1-453)
# Tests used:
# [1] = biological target: T1, ω-transaminase from Vibrio fluvialis JS17 (VfTA); assay: product formation by purified VfTA (GC); no product inhibition detected; assay type: biochemical
# [2] = biological target: T1, ω-transaminase from Vibrio fluvialis JS17 (VfTA); assay: enzyme kinetics (GC assay), product inhibition of VfTA; assay type: biochemical
# [3] = substrate: CC(C)[C@@H]1CC[C@@H](C)CC1=O; assay: steady-state kinetics with purified VfTA (KM, GC assay); assay type: biochemical, Vibrio fluvialis; settings: pyridoxal-5'-phosphate (PLP)
# [4] = substrate: C[C@H](N)c1ccccc1; assay: purified protein; assay type: biochemical, Vibrio fluvialis; settings: pyridoxal-5'-phosphate (PLP)
molecule,measurement,setting,value
CC(C)[C@@H]1CC[C@@H](C)C[C@@H]1N [(+)-neomenthylamine],product formation by purified VfTA (GC); no product inhibition detected,[1],transaminase (VfTA) from Vibrio fluvialis JS17 (PDB: 5ZTX) that can convert (−)-menthone into (+)-neomenthylamine successfully
CC(=O)c1ccccc1 [Acetophenone],Ki,[2],600 µM
B1,Km,[3],5000 ± 600 µM
same,kcat/Km,[3],3300 M⁻¹ s⁻¹
same,Km,[4],800 ± 100 µM
same,kcat/Km,[4],54400 M⁻¹ s⁻¹
